Where no end group is shown, it is not given here. [ ]: non-standard residue; d: D form. Abu = CC[C@H](N)C(=O)O

One test addresses T1, HLA-A*0201 (human).
T1 construct: Purified HLA class I molecule (MHC, no peptide specified); also called HLA-A2.1
Kind of test: competition with 125I-labelled probe peptide for purified HLA-A*0201, gel filtration. In general terms: Size exclusion chromatography separates by hydrodynamic size, large species first.

For test [1], the target named is T2, HLA-A*0301 (human).
T2 construct: Purified HLA molecule, 5 to 500 nM in the assay; also called HLA-A3
Kind of test: competition with 125I-labelled probe peptide on purified HLA-A*0301, gel filtration; ratio to standard peptide 941.12.

In a further test the target is T3, HLA-A*0101 (human).
T3 construct: also called HLA-A1
Kind of test: competition with 125I-labelled probe peptide for purified HLA-A*0101, gel filtration.

In test [2] the target is HLA-A*0301 (human). Put plainly: inhibition of 125I probe peptide binding to purified HLA.
The target in a further test is HLA-A*3101 (human). The test is described as above.
The target in another test is HLA-A*3301 (human). Described as above.
In another test the target is HLA-A*6801 (human). Described as above.
The target of a further test is HLA-A*1101 (human). Described as above.
The next test addresses HLA-B*5301 (human). Kind of test: competition with 125I probe peptide, purified HLA.
Another test concerns the target HLA-B*0702 (human). Kind of test: competition with 125I probe peptide, purified HLA.
In a further test the target is HLA-B*5101 (human). Put plainly: competition with 125I probe peptide, purified HLA.

As for ILKETELRKV (Synthetic peptide) [HER2/neu peptide, position 714, 10 amino acids], the relative binding ratio with HLA-A*0201 is 0.0001 ratio (IC50 of standard peptide / IC50 of test peptide).
As to VLIAHNQVR [HER2/neu peptide, position 84, 9 amino acids], the “relative binding ratio (IC50 of standard peptide / IC50 of test peptide)” value with HLA-A*0301 [1] is 0.0033 relative binding ratio.
Turning to LLPPGAAST (Synthetic peptide) [HER2/neu peptide, position 15, 9 amino acids], in the test with HLA-A*0201, the relative binding ratio was 0.0007 ratio (IC50 of standard peptide / IC50 of test peptide).
As for VVQGNLELTY [HER2/neu peptide, position 55, 10 amino acids, listing 1 of 2 here], the relative binding ratio with HLA-A*0101 was 0.018 ratio (IC50 of standard peptide / IC50 of test peptide).
With TLEEITGYLY (also called Her2/neu.402) [HER2/neu peptide, position 402, 10 amino acids], the relative binding ratio with HLA-A*0101 is 1.1 ratio (IC50 of standard peptide / IC50 of test peptide).
Regarding KITDFGLARL (Synthetic peptide) [HER2/neu peptide, position 860, 10 amino acids], the relative binding ratio in the test with HLA-A*0201 is 0.002 ratio (IC50 of standard peptide / IC50 of test peptide).
Take VTAEDGTQR [HER2/neu peptide, position 322, 9 amino acids]: in the test with HLA-A*0301 [1], the “relative binding ratio (IC50 of standard peptide / IC50 of test peptide)” value worked out at 0.0002 relative binding ratio.
Consider YVMAGVGSPY [HER2/neu peptide, position 772, 10 amino acids, listing 1 of 2 here], for which the “relative binding ratio (IC50 of standard peptide / IC50 of test peptide)” value with HLA-A*0301 [1] came out at 0.01 relative binding ratio.
Consider YLEDVRLVHR [HER2/neu peptide, position 835, 10 amino acids], for which, in the test with HLA-A*0301 [1], the “relative binding ratio (IC50 of standard peptide / IC50 of test peptide)” value was 0.0003 relative binding ratio.
On to QLRSLTEILK (synthetic peptide) [Her2/neu.141], for which the concentration for half-maximal inhibition (IC50) (in general, the point on the concentration scale where inhibition reaches its midpoint) with HLA-A*0301 [2] stood at 55 nM; in the test with HLA-A*3101, 667 nM; in the test with HLA-A*3301, 6170 nM.
As for LLALLPPGA (Synthetic peptide) [HER2/neu peptide, position 12, 9 amino acids], in the test with HLA-A*0201, the relative binding ratio was 0.0008 ratio (IC50 of standard peptide / IC50 of test peptide).
On to ILLVVVLGV (Synthetic peptide) [HER2/neu peptide, position 661, 9 amino acids], for which the relative binding ratio with HLA-A*0201 is 0.002 ratio (IC50 of standard peptide / IC50 of test peptide).
Turning to VLQGLPREY [HER2/neu peptide, position 546, 9 amino acids], the “relative binding ratio (IC50 of standard peptide / IC50 of test peptide)” value with HLA-A*0301 [1] turned out to be 0.0012 relative binding ratio.
Regarding ELMTFGAKPY [HER2/neu peptide, position 914, 10 amino acids], the relative binding ratio with HLA-A*0101 is 0.0082 ratio (IC50 of standard peptide / IC50 of test peptide).
Regarding ELHCPALVTY [HER2/neu peptide, position 265, 10 amino acids], in the test with HLA-A*0101, the relative binding ratio is 0.0015 ratio (IC50 of standard peptide / IC50 of test peptide).
On to KIRKYTMRRL (Synthetic peptide) [HER2/neu peptide, position 681, 10 amino acids], for which the relative binding ratio with HLA-A*0201 is 0.0001 ratio (IC50 of standard peptide / IC50 of test peptide).

B1: HER2/neu peptide, position 883, 9 amino acids (peptide)
peptide: KVPIKWMAL
notes: Synthetic peptide; also called KVPIKWMAL
Consider B1, for which the relative binding ratio with HLA-A*0201 was 0.0002 ratio (IC50 of standard peptide / IC50 of test peptide).
For the molecule VARCPSGVK [HER2/neu peptide, position 597, 9 amino acids], the “relative binding ratio (IC50 of standard peptide / IC50 of test peptide)” value with HLA-A*0301 [1] was determined as 0.01 relative binding ratio.
On the same count and under the same terms, in the case of VSEFSRMAR [HER2/neu peptide, position 973, 9 amino acids] it was -0.0002 relative binding ratio.

B2: Her2/neu.218.B3B7K9 (peptide)
peptide: TV[Abu]AGG[Abu]AK
notes: synthetic analog peptide; also called TVBAGGBAK
Take B2: the 50% inhibitory concentration (IC50) came out at 7.3 nM with HLA-A*6801, 24 nM with HLA-A*0301 [2] and 29 nM with HLA-A*1101.
Regarding ISWLGLRSLR (synthetic peptide) [Her2/neu.450], the IC50 came to 73 nM with HLA-A*6801, 268 nM in the test with HLA-A*0301 [2], 6.9 nM with HLA-A*3101 and 223 nM with HLA-A*3301.
With IVWLGLRSLK (synthetic analog peptide) [Her2/neu.450.V2K10], the 50% inhibitory concentration (IC50) was determined as 12 nM with HLA-A*6801, 3.9 nM with HLA-A*0301 [2] and 128 nM with HLA-A*1101.
As to YVLIAHNQVR [HER2/neu peptide, position 83, 10 amino acids], in the test with HLA-A*0301 [1], the “relative binding ratio (IC50 of standard peptide / IC50 of test peptide)” value is 0.0043 relative binding ratio.
In the case of WMALESILR [HER2/neu peptide, position 888, 9 amino acids], the “relative binding ratio (IC50 of standard peptide / IC50 of test peptide)” value with HLA-A*0301 [1] was -0.0002 relative binding ratio.
Regarding VTGASPGGLR [HER2/neu peptide, position 129, 10 amino acids], the “relative binding ratio (IC50 of standard peptide / IC50 of test peptide)” value with HLA-A*0301 [1] was determined as 0.0002 relative binding ratio.
With CPSGVKPDLSI (analog peptide) [Her2/neu.600.I11], the concentration for half-maximal inhibition (IC50) with HLA-B*5301 is 344 nM; with HLA-B*0702, 290 nM; with HLA-B*5101, 138 nM.
As for TVPWDQLFR [HER2/neu peptide, position 479, 9 amino acids], the “relative binding ratio (IC50 of standard peptide / IC50 of test peptide)” value with HLA-A*0301 [1] worked out at 0.0006 relative binding ratio.
As for TILWKDIFHK (synthetic peptide) [Her2/neu.166], the IC50 was 200 nM with HLA-A*6801; 256 nM with HLA-A*0301 [2]; 487 nM with HLA-A*3101; 690 nM in the test with HLA-A*3301; 1.7 nM with HLA-A*1101.
With YVMAGVGSPY [HER2/neu peptide, position 772, 10 amino acids, listing 2 of 2 here], the relative binding ratio with HLA-A*0101 is 1.1 ratio (IC50 of standard peptide / IC50 of test peptide).
In the case of IVKGGVLIQR (synthetic analog peptide) [Her2/neu.148.V2], the IC50 with HLA-A*6801 was determined as 29 nM; in the test with HLA-A*0301 [2] it was 275 nM; with HLA-A*3101 it was 72 nM; in the test with HLA-A*1101 it was 7500 nM.
As for IVKGGVLIQK (synthetic analog peptide) [Her2/neu.148.V2K10], the IC50 with HLA-A*6801 was determined as 27 nM; with HLA-A*0301 [2], 26 nM; with HLA-A*3101, 450 nM; with HLA-A*3301 it was 6590 nM; with HLA-A*1101, 102 nM.
In the case of ILKGGVLIQR (synthetic peptide) [Her2/neu.148], the figures for the 50% inhibitory concentration (IC50) with HLA-A*0301 [2], in the test with HLA-A*3101 and with HLA-A*3301 were 275 nM, 25 nM and 121 nM, respectively.
IVWKDIFHK (synthetic analog peptide) [Her2/neu.167.V2]: the IC50 with HLA-A*0301 [2] worked out at 23 nM; with HLA-A*3101 it was 247 nM; with HLA-A*3301 it was 853 nM; with HLA-A*1101, 40 nM.
As to KIPVAIKVL (Synthetic peptide) [HER2/neu peptide, position 747, 9 amino acids], the relative binding ratio in the test with HLA-A*0201 was 0.0002 ratio (IC50 of standard peptide / IC50 of test peptide).
As for WMALESILRR [HER2/neu peptide, position 888, 10 amino acids], in the test with HLA-A*0301 [1], the “relative binding ratio (IC50 of standard peptide / IC50 of test peptide)” value came to 0.0085 relative binding ratio.
With LLVVVLGVV (Synthetic peptide) [HER2/neu peptide, position 662, 9 amino acids], the relative binding ratio with HLA-A*0201 was 0.0001 ratio (IC50 of standard peptide / IC50 of test peptide).
Consider PLTCSPQPEY [HER2/neu peptide, position 1130, 10 amino acids], for which the relative binding ratio in the test with HLA-A*0101 was 0.0072 ratio (IC50 of standard peptide / IC50 of test peptide).
LIAHNQVRQV (Synthetic peptide) [HER2/neu peptide, position 85, 10 amino acids]: the relative binding ratio in the test with HLA-A*0201 was 0.0001 ratio (IC50 of standard peptide / IC50 of test peptide).
Consider LLGICLTSTV (Synthetic peptide) [HER2/neu peptide, position 785, 10 amino acids], for which, in the test with HLA-A*0201, the relative binding ratio is 0.049 ratio (IC50 of standard peptide / IC50 of test peptide).
Turning to VLVKSPNHVK [HER2/neu peptide, position 851, 10 amino acids], in the test with HLA-A*0301 [1], the “relative binding ratio (IC50 of standard peptide / IC50 of test peptide)” value was 0.082 relative binding ratio.
As for LLNWCMQIA (Synthetic peptide) [HER2/neu peptide, position 822, 9 amino acids], the relative binding ratio with HLA-A*0201 was 0.0046 ratio (IC50 of standard peptide / IC50 of test peptide).
With WMIDSECRPR [HER2/neu peptide, position 959, 10 amino acids], the “relative binding ratio (IC50 of standard peptide / IC50 of test peptide)” value with HLA-A*0301 [1] is -0.0002 relative binding ratio.
For the molecule VVQGNLELTY [HER2/neu peptide, position 55, 10 amino acids, listing 2 of 2 here], the “relative binding ratio (IC50 of standard peptide / IC50 of test peptide)” value in the test with HLA-A*0301 [1] worked out at 0.0024 relative binding ratio.
Regarding RVLQGLPREY [HER2/neu peptide, position 545, 10 amino acids], the relative binding ratio with HLA-A*0101 was 0.0015 ratio (IC50 of standard peptide / IC50 of test peptide).
LLALLPPGAA (Synthetic peptide) [HER2/neu peptide, position 12, 10 amino acids]: the relative binding ratio in the test with HLA-A*0201 is 0.0006 ratio (IC50 of standard peptide / IC50 of test peptide).
For the molecule LAALCRWGLL (Synthetic peptide) [HER2/neu peptide, position 3, 10 amino acids], in the test with HLA-A*0201, the relative binding ratio is 0.0022 ratio (IC50 of standard peptide / IC50 of test peptide).
Take LLLALLPPGA (Synthetic peptide) [HER2/neu peptide, position 11, 10 amino acids]: the relative binding ratio with HLA-A*0201 was 0.0054 ratio (IC50 of standard peptide / IC50 of test peptide).
As to TVCAGGCAR (synthetic peptide) [Her2/neu.218], the concentration for half-maximal inhibition (IC50) in the test with HLA-A*6801 was 83 nM; with HLA-A*1101, 261 nM.
Turning to LLEDDDMGDL (Synthetic peptide) [HER2/neu peptide, position 1008, 10 amino acids], the relative binding ratio with HLA-A*0201 was 0.0001 ratio (IC50 of standard peptide / IC50 of test peptide).
WIPDGENVK [HER2/neu peptide, position 739, 9 amino acids]: the “relative binding ratio (IC50 of standard peptide / IC50 of test peptide)” value with HLA-A*0301 [1] was found to be 0.0002 relative binding ratio.
Consider LAVLDNGDPL (Synthetic peptide) [HER2/neu peptide, position 114, 10 amino acids], for which, in the test with HLA-A*0201, the relative binding ratio is 0.0002 ratio (IC50 of standard peptide / IC50 of test peptide).
Turning to RLLDIDETEY [HER2/neu peptide, position 868, 10 amino acids], in the test with HLA-A*0101, the relative binding ratio is 1.3 ratio (IC50 of standard peptide / IC50 of test peptide).

These data come from patent US20040018971A1 (published 2004).
